These results are taken from paper PMC6570770, “In situ structure and assembly of the multidrug efflux pump AcrAB-TolC” (Nature Communications, 2019).

This data set concerns the molecule itself. The experiment in a line: cryo-EM structure.

B1: AcrA (periplasmic adaptor protein of the AcrAB-TolC multidrug efflux pump) (natural protein)
chain: CDDKQAQQGGQQMPAVGVVTVKTEPLQITTELPGRTSAYRIAEVRPQVSGIILKRNFKEGSDIEAGVSLYQIDPATYQATYDSAKGDLAKAQAAANIAQLTVNRYQKLLGTQYISKQEYDQALADAQQANAAVTAAKAAVETARINLAYTKVTSPISGRIGKSNVTEGALVQNGQATALATVQQLDPIYVDVTQSSNDFLRLKQELANGTLKQENGKAKVSLITSDGIKFPQDGTLEFSDVTVDQTTGSITLRAIFPNPDHTLLPGMFVRARLEEGLNPNAILVPQQGVTRTPRGDATVLVVGADDKVETRPIVASQAIGDKWLVTEGLKAGDRVVISGLQKVRPGVQVKAQEVTADNNQQAASGAQPEQSKS
notes: also called periplasmic adaptor protein AcrA; source: E. coli BL21 (DE3), overexpressed from plasmid pAcBH (acrAB locus), in intact cells
For orientation: stoichiometry N means a count of units in the complex or per binding partner. As for B1, the “stoichiometry N” value is 6.
